Source: patent US20200062840A1 (KINDRED BIOSCIENCES, published 2020)

T1: canine IL31 with C-terminal polyHis tag (canine, biotinylated at primary amine groups (NHS-LC-Biotin) or at glycan groups (Biotin-LC-Hydrazide))
T1 construct: also called biotinylated canine IL31; canine IL31 (amine-conjugated-biotin); not shown: C-terminal poly-His tag
T1 chain: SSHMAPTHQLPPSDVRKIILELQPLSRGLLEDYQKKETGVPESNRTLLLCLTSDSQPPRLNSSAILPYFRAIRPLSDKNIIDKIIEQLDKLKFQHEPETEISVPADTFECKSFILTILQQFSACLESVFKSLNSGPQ


Columns and labels:
[1] = target: biotinylated equine IL31 (equine); assay: BLI, biotinylated equine IL31 immobilized to the sensor; preliminary measurement; upper end of the range; preliminary measurement
[2] = target: biotinylated equine IL31 (equine); assay: BLI, biotinylated equine IL31 immobilized to the sensor; preliminary measurement; lower end of the range; preliminary measurement
[3] = target: T1, canine IL31 with C-terminal polyHis tag; assay: BLI (Octet), canine IL31 (glycan-conjugated-biotin) on streptavidin tips, antibody at 100 nM, 2:1 model; canine IL31 (glycan-conjugated-biotin)
Method: (§1) The binding analysis was performed using a biosensor Octet as follows. Briefly, canine IL31 was biotinylated at primary amine groups using EZ-Link™ NHS-LC-Biotin (Thermo Scientific, Catalog No. 21336) or at glycan groups using EZ-Link™ Biotin-LC-Hydrazide (ThermoFisher Scientific, Catalog No. 21340) according to the manufacturer's instructions. The free unreacted biotin was removed from biotinylated IL31 by extensive dialysis. Biotinylated canine IL31 was captured on streptavidin sensor tips. The association of four different concentrations (400, 200, 66.6, and 33 nM) of chimeric and caninized M14 antibody and human and canine IL31 (amine-conjugated-biotin) and the association of 100 nM of caninized M14 antibody and canine IL31 (glycan-conjugated-biotin) was monitored for ninety seconds. Dissociation was monitored for 600 seconds. A buffer only blank curve was subtracted to correct for any drift. The data were fit to a 2:1 binding model using ForteBio™ data analysis software to determine the kₒₙ, koff, and the Kd. The buffer for dilutions and all binding steps was: 20 mM phosphate, 150 mM NaCl, pH 7.2.

[4] = target: T1, canine IL31 with C-terminal polyHis tag; assay: BLI (Octet), canine IL31 (amine-conjugated-biotin) on streptavidin tips, antibody at 400, 200, 66.6 and 33 nM, 2:1 model; canine IL31 (amine-conjugated-biotin)
Method: as §1

Chain of biotinylated equine IL31 (equine) (chain, as listed by the source limits assumed, form in doubt): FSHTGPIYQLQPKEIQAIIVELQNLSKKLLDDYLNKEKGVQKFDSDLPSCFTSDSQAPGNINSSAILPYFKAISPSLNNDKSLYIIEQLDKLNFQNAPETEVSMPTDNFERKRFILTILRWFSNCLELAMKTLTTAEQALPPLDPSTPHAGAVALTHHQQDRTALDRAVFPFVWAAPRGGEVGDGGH

Row | Kd [1] [nM] | Kd [2] [nM] | Kd [3] [nM] | koff [3] [s⁻¹] | Kd [4] [nM] | Binder
1 | < 50 | > 10 | – | – | – | mouse monoclonal antibody M14 (antibody, V domains shown) VH: EVQLQESGPSLVKPSQTLSLTCSVTGDSITSGYWNWIRKFPGNKLEYMGYISYSGITDYNPSLKSRISITRDTSKNQYYLQLNSVTTEDTATYYCARYGNYGYAMDYWGQGTSVTVSS VL: DIVLTQSPASLAVSLGQRATISCRASESVDTYGNSFMHWYQQKSGQSPKLLIYRASNLESGIPARFGGSGSRTDFTLTIDPVEADDVATYYCQQSYEDPWTFGGGTKLEIK
2 | – | – | < 0.001 | < 1e-07 | < 0.01 | caninized M14 IgG-B (antibody, V domains shown, canine IgG-B heavy chain and canine light chain constant region; also called caninized M14 antibody) VH: EVQLVESGPSLVKPGGSLRLTCSVTGDSITSGYWNWIRKFPGNKLEYMGYISYSGITDYNPSLKSRITISRDTSKNQYYLQLNSVTTEDTATYYCARYGNYGYAMDYWGQGTLVTVSS VL: DIVMTQSPASLSVSLGQRATISCRASESVDTYGNSFMHWYQQKPGQSPKLLIYRASNLESGIPARFGGSGSGTDFTLTIDPVQADDVATYYCQQSYEDPWTFGGGTKLEIKR
